# According to US10555963B2, “Klotho protein and related compounds for the treatment and diagnosis of cancer” (TEL HASHOMER MEDICAL RESEARCH INFRASTRUCTURE AND SERVICES …, priority 2007, dated 2020):
# B1: sol-hKL1: Human KL1 (residues 34-549 of SEQ ID: 2) obtained from PeproTech Inc. (protein)
# chain: EPGDGAQTWARFSRPPAPEAAGLFQGTFPDGFLWAVGSAAYQTEGGWQQHGKGASIWDTFTHHPLAPPGDSRNASLPLGAPSPLQPATGDVASDSYNNVFRDTEALRELGVTHYRFSISWARVLPNGSAGVPNREGLRYYRRLLERLRELGVQPVVTLYHWDLPQRLQDAYGGWANRALADHFRDYAELCFRHFGGQVKYWITIDNPYVVAWHGYATGRLAPGIRGSPRLGYLVAHNLLLAHAKVWHLYNTSFRPTQGGQVSIALSSHWINPRRMTDHSIKECQKSLDFVLGWFAKPVFIDGDYPESMKNNLSSILPDFTESEKKFIKGTADFFALCFGPTLSFQLLDPHMKFRQLESPNLRQLLSWIDLEFNHPQIFIVENGWFVSGTTKRDDAKYMYYLKKFIMETLKAIKLDGVDVIGYTAWSLMDGFEWHRGYSIRRGLFYVDFLSQDKMLLPKSSALFYQKLIEKNGFPPLPENQPLEGTFPCDFAWGVVDNYIQVSQLTKPISSLTKPYH
# B2: soluble klotho protein: V5-tagged entire extracellular domain of mouse Klotho protein (residues 31 to 982 of SEQ ID NO: 3) from Drosophila cells (protein)
# chain: RCLSAEPGQGAQTWARFARAPAPEAAGLLHDTFPDGFLWAVGSAAYQTEGGWRQHGKGASIWDTFTHHSGAAPSDSPIVVAPSGAPSPPLSSTGDVASDSYNNVYRDTEGLRELGVTHYRFSISWARVLPNGTAGTPNREGLRYYRRLLERLRELGVQPVVTLYHWDLPQRLQDTYGGWANRALADHFRDYAELCFRHFGGQVKYWITIDNPYVVAWHGYATGRLAPGVRGSSRLGYLVAHNLLLAHAKVWHLYNTSFRPTQGGRVSIALSSHWINPRRMTDYNIRECQKSLDFVLGWFAKPIFIDGDYPESMKNNLSSLLPDFTESEKRLIRGTADFFALSFGPTLSFQLLDPNMKFRQLESPNLRQLLSWIDLEYNHPPIFIVENGWFVSGTTKRDDAKYMYYLKKFIMETLKAIRLDGVDVIGYTAWSLMDGFEWHRGYSIRRGLFYVDFLSQDKELLPKSSALFYQKLIEDNGFPPLPENQPLEGTFPCDFAWGVVDNYVQVDTTLSQFTDPNVYLWDVHHSKRLIKVDGVVAKKRKPYCVDFSAIRPQITLLREMRVTHFRFSLDWALILPLGNQTQVNHTVLHFYRCMISELVHANITPVVALWQPAAPHQGLPHALAKHGAWENPHTALAFADYANLCFKELGHWVNLWITMNEPNTRNMTYRAGHHLLRAHALAWHLYDDKFRAAQKGKISIALQADWIEPACPFSQNDKEVAERVLEFDIGWLAEPIFGSGDYPRVMRDWLNQKNNFLLPYFTEDEKKLVRGSFDFLAVSHYTTILVDWEKEDPMKYNDYLEVQEMTDITWLNSPSQVAVVPWGLRKVLNWLRFKYGDLPMYVTANGIDDDPHAEQDSLRIYYIKNYVNEALKAYVLDDINLCGYFAYSLSDRSAPKSGFYRYAANQFEPKPSMKHYRRIIDSNGFLGSGTLGRFCPEEYTVCTECGFFQTRK
# modifications: V5 tag
# B3: sol-hKL: Soluble human Klotho protein (hKL) obtained from R&D Systems (protein, UniProt Q9UEF7 34-981, looked up)
# extracellular domain: EPGDGAQTWARFSRPPAPEAAGLFQGTFPDGFLWAVGSAAYQTEGGWQQHGKGASIWDTFTHHPLAPPGDSRNASLPLGAPSPLQPATGDVASDSYNNVFRDTEALRELGVTHYRFSISWARVLPNGSAGVPNREGLRYYRRLLERLRELGVQPVVTLYHWDLPQRLQDAYGGWANRALADHFRDYAELCFRHFGGQVKYWITIDNPYVVAWHGYATGRLAPGIRGSPRLGYLVAHNLLLAHAKVWHLYNTSFRPTQGGQVSIALSSHWINPRRMTDHSIKECQKSLDFVLGWFAKPVFIDGDYPESMKNNLSSILPDFTESEKKFIKGTADFFALCFGPTLSFQLLDPHMKFRQLESPNLRQLLSWIDLEFNHPQIFIVENGWFVSGTTKRDDAKYMYYLKKFIMETLKAIKLDGVDVIGYTAWSLMDGFEWHRGYSIRRGLFYVDFLSQDKMLLPKSSALFYQKLIEKNGFPPLPENQPLEGTFPCDFAWGVVDNYIQVDTTLSQFTDLNVYLWDVHHSKRLIKVDGVVTKKRKSYCVDFAAIQPQIALLQEMHVTHFRFSLDWALILPLGNQSQVNHTILQYYRCMASELVRVNITPVVALWQPMAPNQGLPRLLARQGAWENPYTALAFAEYARLCFQELGHHVKLWITMNEPYTRNMTYSAGHNLLKAHALAWHVYNEKFRHAQNGKISIALQADWIEPACPFSQKDKEVAERVLEFDIGWLAEPIFGSGDYPWVMRDWLNQRNNFLLPYFTEDEKKLIQGTFDFLALSHYTTILVDSEKEDPIKYNDYLEVQEMTDITWLNSPSQVAVVPWGLRKVLNWLKFKYGDLPMYIISNGIDDGLHAEDDQLRVYYMQNYINEALKAHILDGINLCGYFAYSFNDRTAPRFGLYRYAADQFEPKASMKHYRKIIDSNGFPGPETLERFCPEEFTVCTECSFFHTRKS
# modifications: extracellular domain
# notes: Soluble human Klotho protein (hKL) obtained from R&D Systems
# Legend:
# [1] = test system: MCF-7 cells; test: MTT proliferation assay after klotho protein down-regulation by siRNA; format: cell-based, human; conditions: 48 h; compared to siRNAc; p<0.05
# Method: (§1) Klotho protein directed stealth siRNA duplex oligoribonucleotides and control siRNAs were both designed and purchased from Invitrogen. Lipofectamine 2000 (Invitrogen), and was used to transfect the cells with 100 pmoles of siRNA.
# The medium was aspirated, and the cells were dissolved by dimethyl sulfoxide (DMSO).
# (§2) Three klotho protein-directed siRNAs were designed and tested for their ability to silence klotho protein expression in MCF-7 cells, compared to a control siRNA (siRNAc).
# [2] = test system: AKT in MCF-7 cells; test: AKT phosphorylation after IGF-1 stimulation in klotho-silenced MCF-7 cells; format: cell-based, human; conditions: compared to siRNAc transfected cells
# Text: as §1
# The effect of silencing of klotho protein in MCF-7 cells, using siRNA3, was also studied.
# [3] = test system: klotho protein mRNA; test: Silencing of klotho protein expression by siRNA in MCF-7 cells (mRNA levels); format: cell-based, human; conditions: MCF-7 cells transfected with siRNA
# Text: as §1
# For breast cell studies, total RNA was extracted using the RNA isolation kit (Sigma) and processed to cDNA with RevertAid (Fermentas, Vilnius, Lithuania). Primers were designed using Primer Express (Applied Biosystems, Foster City, Calif.) and synthesized by IDT (Coralville, Iowa). […].
# as §2
# [4] = test system: Panc1 cells; test: MTT proliferation assay, soluble klotho protein and 5-FU; conditions: 5-FU 500 μM alone; 48 hr
# Method: 3000 cells/well were plated in 96-well plates, cultured in the appropriate culture media, and treated for 48 hrs as indicated.
# Medium alone served as control. 48 hr after incubation, cells were cultured for 2 hr with 500 μg/ml MTT reagent, the medium was aspirated, and the cells were dissolved in dimethyl sulfoxide (DMSO). Absorbance of the formazan product was measured by an enzyme-linked immunosorbent assay reader to provide a measure of viability.
# [5] = test system: MiaPaCa2 cells; test: In vivo MiaPaCa2 tumors in athymic mice treated with sol-hKL or sol-hKL1; conditions: sol-hKL 2.5 μg/kg, sol-hKL1 10 μg/kg; for tumors completely regressed (number) / tumors completely regressed (percent): after four weeks
# Method: A similar experiment, with minor differences, was also performed using MiaPaCa2 cells (FIGS. 17H, 17I). Cells were injected into both flanks of athymic mice and mice were treated with either a control vehicle (N=8), sol-hKL (2.5 μg/kg, N=8) or sol-hKL1 (10 μg/kg, N=8).
# [6] = Blood counts and chemistry of treated mice; format: in vivo; conditions: for glucose levels: after fasting, MiaPaCa2 xenograft experiment; for blood counts or liver function tests: data not shown; for hypophosphatemia in treated mice: mouse, in vivo
# Method: The effects of sol-hKL and sol-hKL1 on blood counts and chemistry were also studied. For these studies, blood was withdrawn from control, sol-hKL-treated (2.5 μg/kg) or sol-hKL1-treated (10 μg/kg) mice, at the same day as sacrificing and tumor harvesting, following five weeks of treatment.
# [7] = test system: Panc1 cells; test: MTT viability assay, sol-hKL or sol-hKL1; format: cell-based, human; conditions: 48 hrs
# Method: The activity of hKL1 was also tested. Panc1 cells were treated with either sol-hKL or sol-hKL1 for 48 hrs and viability was assessed after 48 hours by MTT assay (FIG. 17B).
# [8] = test system: Panc1 cells; test: In vivo Panc1 tumors in athymic mice treated with sol-hKL or sol-hKL1; conditions: i.p. five days a week for five weeks; for tumor growth (tumor volume and weight): sol-hKL 2.5 μg/kg, sol-hKL1 10 or 25 μg/kg, p<0.05
# Method: The in vivo growth inhibitory activity of sol-hKL1, compared to sol-hKL, on pancreatic cancer cells was examined (FIG. 17C-G). Panc1 cells were injected into one flank of athymic mice and mice were treated with intraperitoneal injections of either control vehicle (N=12), sol-hKL (2.5 μg/kg, N=7), or sol-hKL1 (10 μg/kg, N=6; 25 μg/kg, N=7), five days a week for five weeks. Weight of mice (FIG. 17C) and tumor volume (FIG. 17D) in control and treated groups were monitored weekly and tumor weight was measured on day of sacrifice (FIG. 17E).
# [9] = test system: IGF-1R in MCF-7 cells; test: IGF-1R phosphorylation in MCF-7 cells treated with soluble klotho protein; format: cell-based, human; conditions: klotho 15 min, then IGF-1 12.5 nM
# Text: Soluble klotho protein was generated essentially as described (Kurosu et al., 2005). In brief, insect cells, which stably express V5-tagged soluble klotho protein, were generated using the Drosophila Expression System (Invitrogen). A cDNA fragment encoding the entire extracellular domain of mouse Klotho protein (amino acid residues 31 to 982 of SEQ ID NO: 3) was inserted into a pMT/BiP/V5-His expression vector, allowing inducible expression from metallothionein promoter and secretion of the recombinant protein with V5 and 6×His tags at the C-terminus into conditioned medium. The expression vector was transfected into Drosophila Schneider cells by the calcium phosphate method together with pCoHYGRO selection vector. […]
# As klotho protein may also be shed and act as a circulating hormone (Kuro-o et al., 1997; Matsumura et al., 1998), the ability of soluble klotho protein to inhibit activation of the IGF-1 pathway in MCF-7 cells was tested. V5-tagged soluble klotho protein was generated as described under “Materials and Methods”, its expression and purity were examined using Coomassie staining and its concentration was determined (data not shown). MCF-7 cells were treated with klotho protein for 15 min and, stimulated with IGF-1 (12.5 nM, 15 min), and expression and phosphorylation of the IGF-1R was determined.
# [10] = test system: IGF-1 pathway in Panc1 cells; test: IGF-1 pathway in Panc1 cells treated with soluble klotho protein (immunoblot); format: cell-based, human; conditions: klotho 10 min, then IGF-1 12.5 nM, 15 min
# Method: For pancreatic cells, protein extraction and Western blotting was performed as described (Wolf et al., 2008).
# Since klotho protein is shed and may act as a circulating hormone, the ability of soluble klotho protein to inhibit activation of the IGF-1 pathway in Panc1 cells was tested. V5-tagged soluble klotho protein was generated as described [Kurosu H. et al., 2005]. Panc1 cells were treated with klotho protein for 10 min and stimulated with IGF-1 (12.5 nM, 15 min), and expression and phosphorylation of the IGF-1R, AKT and ERK1/2 was determined.
# [11] = five weeks of treatment, sol-hKL 2.5 μg/kg, sol-hKL1 10 μg/kg
Molecule,tumors completely regressed (number) [5],tumors completely regressed (percent) [5] [%],glucose levels [6],"blood counts or liver function tests [6, 11]",hypophosphatemia in treated mice [6],changes in weight or general health of mice [8],tumor growth (tumor volume and weight) [8],further results
CACCAAGAGAGAUGAUGCCAAAUAU [siRNA3],,,,,,,,increase of proliferation of MCF-7 cells (MTT assay) [1]: 2.5 fold; AKT phosphorylation following IGF-1 stimulation [2]: increased; reduction of klotho protein expression (mRNA levels) [3]: 88%
"O=c1[nH]cc(F)c(=O)[nH]1 [5-FLU, 5-Fluorouracil]",,,,,,,,reduction in viability [4]: 50%
B1,four,25,did not have any significant effect,did not affect,not,No changes,significantly inhibited tumor growth,tumor growth inhibition compared with sol-hKL [5]: more effectively than sol-hKL; concentration for 50% viability reduction relative to sol-hKL [7]: 100 times; reduction of viability of Panc1 cells ([7]; p<0.005 vs control): 50%
B2,,,,,,,,"phosphorylation of the IGF-1 receptor [9]: inhibited; phosphorylation of IGF-1R, AKT and ERK1/2 [10]: inhibited phosphorylation"
B3,two,12,mildly increased,did not affect,observed,No changes,significantly inhibited tumor growth,"blood urea, cholesterol and phosphate levels [6, 11]: altered"
